Assay results as given in article PMC6298664.
pKd: −log10 of the molar value.

Legend:
[1] = target: Spermidine N-acetyltransferase (SpeG) from Escherichia coli (Escherichia coli str. K-12 substr. MG1655) (UniProt P0A951); experiment: SPR; SpeG (46 uM) amine-coupled to a carboxymethyl dextran chip; RcsB constructs as analytes; no spermidine; 4 C; 10 mM HEPES pH 8.3, 100 mM sodium chloride; Reichert SR7500DC; one-to-one model
[2] = target: Spermidine N-acetyltransferase (SpeG) from Escherichia coli (Escherichia coli str. K-12 substr. MG1655) (UniProt P0A951); experiment: SPR; SpeG (46 uM) amine-coupled; the surface exposed to 0.5 mM spermidine before the RcsB constructs were injected as analytes; 4 C; 10 mM HEPES pH 8.3, 100 mM sodium chloride; Reichert4SR; one-to-one model

UniProt P0A951, sequence (P0A951 whole entry): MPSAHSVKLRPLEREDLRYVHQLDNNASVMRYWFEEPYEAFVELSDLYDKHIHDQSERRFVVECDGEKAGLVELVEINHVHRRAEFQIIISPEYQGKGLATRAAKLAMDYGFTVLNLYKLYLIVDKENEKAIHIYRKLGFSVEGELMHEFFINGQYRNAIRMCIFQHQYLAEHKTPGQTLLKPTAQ

pKd [1]	pKd [2]	Substance
4.17	3.55	C-terminal DNA binding domain of RcsB (residues 128-216) (from UniProt P0DMC7 128-216) (domain or fragment)
–	3.89	full-length RcsB from Escherichia coli (from UniProt P0DMC7 1-216) (natural protein)
